Measured values taken from PMC7264852, “Structural and Hydrodynamic Characterization of Dimeric Human Oligoadenylate Synthetase 2” (Biophysical Journal, 2020).

Columns and labels:
OAS2 (Homo sapiens) = OAS2 (Homo sapiens) (UniProt P29728); settings: cited from earlier work
[1] = target: recombinant human OAS1 (2′-5′-oligoadenylate synthetase 1) (human) (UniProt P00973); assay: AUC; sedimentation velocity, OAS1 at 2.0–3.5 g/L, 20°C, 25,000 rpm, 20 mM Tris pH 7.2, 100 mM NaCl, 1 mM DTT, 10% glycerol; monomer to dimer
[2] = target: recombinant human OAS1 (2′-5′-oligoadenylate synthetase 1) (human) (UniProt P00973); assay: SEC-SAXS; OAS1 loaded at 4.14 g/L (50 μL) on a Shodex KW404 column, Diamond Light Source B21; peak-1 and peak-2 analysed separately; Mw by SAXS MoW
[3] = target: the molecule itself; assay: SEC-SAXS; OAS2 loaded at 4.00 g/L (50 μL) on a Shodex KW404 column, Diamond Light Source B21; volume-based molecular weight from DAMMIN

Molecule: OAS2 (from UniProt P29728)
- Kd (OAS2 (Homo sapiens)): 5.1 nM

Molecule: recombinant human OAS1 (2′-5′-oligoadenylate synthetase 1) (from UniProt P00973 1-400) (enzyme)
- stoichiometry N [1]: 2
- stoichiometry N [2]: 2

B1: FLAG-tagged OAS2 (recombinant human 2′-5′-oligoadenylate synthetase 2, wild type) (enzyme, UniProt P29728-2 1-687, looked up)
chain: MGNGESQLSSVPAQKLGWFIQEYLKPYEECQTLIDEMVNTICDVLQEPEQFPLVQGVAIGGSYGRKTVLRGNSDGTLVLFFSDLKQFQDQKRSQRDILDKTGDKLKFCLFTKWLKNNFEIQKSLDGFTIQVFTKNQRISFEVLAAFNALSLNDNPSPWIYRELKRSLDKTNASPGEFAVCFTELQQKFFDNRPGKLKDLILLIKHWHQQCQKKIKDLPSLSPYALELLTVYAWEQGCRKDNFDIAEGVRTVLELIKCQEKLCIYWMVNYNFEDETIRNILLHQLQSARPVILDPVDPTNNVSGDKICWQWLKKEAQTWLTSPNLDNELPAPSWNVLPAPLFTTPGHLLDKFIKEFLQPNKCFLEQIDSAVNIIRTFLKENCFRQSTAKIQIVRGGSTAKGTALKTGSDADLVVFHNSLKSYTSQKNERHKIVKEIHEQLKAFWREKEEELEVSFEPPKWKAPRVLSFSLKSKVLNESVSFDVLPAFNALGQLSSGSTPSPEVYAGLIDLYKSSDLPGGEFSTCFTVLQRNFIRSRPTKLKDLIRLVKHWYKECERKLKPKGSLPPKYALELLTIYAWEQGSGVPDFDTAEGFRTVLELVTQYQQLCIFWKVNYNFEDETVRKFLLSQLQKTRPVILDPAEPTGDVGGGDRWCWHLLAKEAKEWLSSPCFKDGTGNPIPPWKVPVKVI
notes: human 2′-5′-oligoadenylate synthetase 2 (OAS2); residues D408, D410, D481, C668, F669, K670 are named; The N-terminal position of FLAG is stated only for the CAFAKA mutant; also called FLAG-OAS2; wild-type OAS2; source: HEK293T, transfected (pcDNA3); in lysate for the co-immunoprecipitation
- stoichiometry N [3]: 2
